The values that follow come from publication PMC5756113 (Peptides, 2017).

For series [1] the following is noted: mouse, in vivo.
The conditions of series [2]: in vivo, cited from earlier work.
The conditions of series [3]: mouse, in vivo. The source holds these as a separate data set.

In the case of “I-PACAP38: 38-amino acid form of PACAP (Bachem) radioactively labeled with 125I by the lactoperoxidase method”, in series [1], the “Average rate of I-PACAP38 transport into whole brain in the No-Sham Controls” value came to 2.35 µL/g/min; the “Average rate of transport into the whole brain for all groups” value was 2.98 µL/g/min; the “Increase in the Vi, CCI versus Sham” value is on record as 1.4 fold; the “Transport rate in cerebellum compared to the cortices and whole brain” value was around 2 fold. Further, the “Rate of PACAP38 transport across the mouse BBB” value in series [2] was 2.86 µL/g/min. Besides, in series [2] (mouse), the “Amount of I-PACAP38 to enter the brain” value is 0.119 %Inj/g and the Vi previously reported was 18.5 µL/g. Moreover, in series [3], the “%Inj/g in cerebellum (average)” value worked out at 0.37 %Inj/g; the “Amount of I-PACAP38 to enter the brain (value calculated here)” value was 0.15 %Inj/g; the “I-PACAP38 %Inj/g in the ipsilateral cortex, CCI compared to Sham” value is listed as “nearly a doubling”.

On to “Pituitary adenylate cyclase-activating polypeptide 38 [PACAP38, reference compound]”, for which, in series [1], the “Increase in the rate of transport at 72 hours post-CCI compared to the 2 hour time point” value was 2–3 fold. Moreover, the “Rate of PACAP38 transport across the mouse BBB” value in series [2] was 2.86 ± 0.57 µL/g/min. In addition, the “Half-time disappearance of PACAP38 from the blood” value in series [2] (mouse) is 0.82 min.
